Results reported in US20250289867A1.

Biological target: MERS spike on pseudotyped lentiviral particles (MERS coronavirus) (UniProt K9N5Q8)
Experiment: cell-based or functional assay

Sequence of UniProt K9N5Q8 (K9N5Q8 18-1353): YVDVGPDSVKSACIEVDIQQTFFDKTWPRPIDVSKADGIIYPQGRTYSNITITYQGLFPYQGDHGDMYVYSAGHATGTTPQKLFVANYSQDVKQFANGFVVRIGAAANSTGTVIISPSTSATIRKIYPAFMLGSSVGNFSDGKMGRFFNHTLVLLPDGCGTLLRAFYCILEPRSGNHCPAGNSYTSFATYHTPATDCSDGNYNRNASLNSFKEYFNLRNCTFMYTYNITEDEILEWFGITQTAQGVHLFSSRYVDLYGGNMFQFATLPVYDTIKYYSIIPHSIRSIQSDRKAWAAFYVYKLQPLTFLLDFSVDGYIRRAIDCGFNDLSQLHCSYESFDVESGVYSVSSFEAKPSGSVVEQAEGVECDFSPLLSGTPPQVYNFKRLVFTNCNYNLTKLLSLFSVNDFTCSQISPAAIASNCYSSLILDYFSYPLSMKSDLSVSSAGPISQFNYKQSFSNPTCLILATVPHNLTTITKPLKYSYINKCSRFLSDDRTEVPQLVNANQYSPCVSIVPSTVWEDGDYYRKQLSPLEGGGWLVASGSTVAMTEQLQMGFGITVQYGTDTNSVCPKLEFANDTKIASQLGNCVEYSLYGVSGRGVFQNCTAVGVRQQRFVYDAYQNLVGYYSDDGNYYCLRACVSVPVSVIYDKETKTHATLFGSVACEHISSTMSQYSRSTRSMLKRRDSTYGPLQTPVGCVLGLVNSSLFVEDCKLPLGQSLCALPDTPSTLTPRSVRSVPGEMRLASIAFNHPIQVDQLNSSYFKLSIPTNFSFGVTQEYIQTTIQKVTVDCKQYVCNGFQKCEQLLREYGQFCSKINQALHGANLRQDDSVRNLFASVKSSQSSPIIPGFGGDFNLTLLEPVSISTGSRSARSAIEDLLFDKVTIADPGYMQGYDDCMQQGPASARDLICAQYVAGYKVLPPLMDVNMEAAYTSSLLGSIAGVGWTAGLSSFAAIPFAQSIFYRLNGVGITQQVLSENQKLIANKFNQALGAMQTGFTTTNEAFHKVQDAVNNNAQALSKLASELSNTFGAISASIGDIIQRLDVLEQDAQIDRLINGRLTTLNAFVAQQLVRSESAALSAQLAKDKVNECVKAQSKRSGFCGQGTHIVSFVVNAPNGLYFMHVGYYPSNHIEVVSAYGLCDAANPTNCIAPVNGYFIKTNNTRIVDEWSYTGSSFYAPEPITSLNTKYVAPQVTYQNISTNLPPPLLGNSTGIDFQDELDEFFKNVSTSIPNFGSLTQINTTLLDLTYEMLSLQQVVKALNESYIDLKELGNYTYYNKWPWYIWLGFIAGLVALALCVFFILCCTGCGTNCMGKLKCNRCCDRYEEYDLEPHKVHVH

Row | Substance | IC50, pseudovirus microneutralization assay, H1650 target cells [pM] | IC50, pseudovirus neutralization assay, H1650 target cells [pM]
1 | DPP4 recombinant protein (from UniProt P27487 39-766) (receptor) | > 48000 | 
2 | NA75-DPP4, displayed on lentiviral-based multivalent particles (from UniProt P27487 30-766) (receptor) |  | 0.87
